Key:
[1] = molecular target: C-reactive protein (CRP), human, purified (Sigma) (human) (UniProt P02741); test: SPR; BIAcore 2000; POPC on HPA chip, 200 nM CRP injected and captured, then L-rFBG injected at 30 ul/min; infection-inflammation condition: 50 mM MES, 145 mM NaCl, 2 mM calcium, pH 6.5
[2] = molecular target: C-reactive protein (CRP), human, purified (Sigma) (human) (UniProt P02741); test: SPR; BIAcore 2000; POPC on HPA chip, 200 nM CRP injected and captured, then L-rFBG injected at 30 ul/min; normal condition: 50 mM Tris, 145 mM NaCl, 2.5 mM calcium, pH 7.4

C-reactive protein (CRP), human, purified (Sigma) (human), sequence (P02741 19-224): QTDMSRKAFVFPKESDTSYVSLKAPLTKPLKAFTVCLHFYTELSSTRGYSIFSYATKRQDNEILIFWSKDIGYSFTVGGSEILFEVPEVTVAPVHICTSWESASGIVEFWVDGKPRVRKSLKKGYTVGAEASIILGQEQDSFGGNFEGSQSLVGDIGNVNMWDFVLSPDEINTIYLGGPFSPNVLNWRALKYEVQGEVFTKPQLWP

Q: For “recombinant FBG domain of L-ficolin (L-rFBG) (domain or fragment)”, which Kd [1] is on record?
A: 12.6 nM

Q: What about the Kd [2] of the same substance?
A: 1110 nM
